Laboratory results published in paper PMC12416549 (2024).

T1: TNFR1 (Homo sapiens, UniProt P19438)
T1 chain: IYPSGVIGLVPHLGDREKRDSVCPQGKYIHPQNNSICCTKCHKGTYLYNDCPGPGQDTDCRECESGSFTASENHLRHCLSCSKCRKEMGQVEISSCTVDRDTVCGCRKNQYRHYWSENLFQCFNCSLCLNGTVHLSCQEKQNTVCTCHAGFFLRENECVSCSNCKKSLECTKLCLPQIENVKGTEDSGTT


Target: T1, TNFR1
Assay: yeast display SC50

Binder	apparent Kd (screen)
R13Q (designed binder) MTLQELLREEALQRAEAEAFRYALELLAEKFPEQKEYLLDLAEEIESQIRSLSGVDVEDVRKFLDKEWAWVKELLAEHPAELAEVEAARAARLAELRAEVEAKVAA	0.142 nM
R21W (designed binder) MTLQELLREEALRRAEAEAFWYALELLAEKFPEQKEYLLDLAEEIESQIRSLSGVDVEDVRKFLDKEWAWVKELLAEHPAELAEVEAARAARLAELRAEVEAKVAA	0.49 nM
Q34M (designed binder) MTLQELLREEALRRAEAEAFRYALELLAEKFPEMKEYLLDLAEEIESQIRSLSGVDVEDVRKFLDKEWAWVKELLAEHPAELAEVEAARAARLAELRAEVEAKVAA	2.73 nM
S51F (designed binder) MTLQELLREEALRRAEAEAFRYALELLAEKFPEQKEYLLDLAEEIESQIRFLSGVDVEDVRKFLDKEWAWVKELLAEHPAELAEVEAARAARLAELRAEVEAKVAA	0.368 nM
E5R (designed binder) MTLQRLLREEALRRAEAEAFRYALELLAEKFPEQKEYLLDLAEEIESQIRSLSGVDVEDVRKFLDKEWAWVKELLAEHPAELAEVEAARAARLAELRAEVEAKVAA	0.49 nM
K35N (designed binder) MTLQELLREEALRRAEAEAFRYALELLAEKFPEQNEYLLDLAEEIESQIRSLSGVDVEDVRKFLDKEWAWVKELLAEHPAELAEVEAARAARLAELRAEVEAKVAA	0.405 nM
E43Y (designed binder) MTLQELLREEALRRAEAEAFRYALELLAEKFPEQKEYLLDLAYEIESQIRSLSGVDVEDVRKFLDKEWAWVKELLAEHPAELAEVEAARAARLAELRAEVEAKVAA	0.142 nM
E44Q (designed binder) MTLQELLREEALRRAEAEAFRYALELLAEKFPEQKEYLLDLAEQIESQIRSLSGVDVEDVRKFLDKEWAWVKELLAEHPAELAEVEAARAARLAELRAEVEAKVAA	9.41 nM
S51R (designed binder) MTLQELLREEALRRAEAEAFRYALELLAEKFPEQKEYLLDLAEEIESQIRRLSGVDVEDVRKFLDKEWAWVKELLAEHPAELAEVEAARAARLAELRAEVEAKVAA	1.05 nM
Q34S (designed binder) MTLQELLREEALRRAEAEAFRYALELLAEKFPESKEYLLDLAEEIESQIRSLSGVDVEDVRKFLDKEWAWVKELLAEHPAELAEVEAARAARLAELRAEVEAKVAA	0.49 nM
A19G (designed binder) MTLQELLREEALRRAEAEGFRYALELLAEKFPEQKEYLLDLAEEIESQIRSLSGVDVEDVRKFLDKEWAWVKELLAEHPAELAEVEAARAARLAELRAEVEAKVAA	0.593 nM
A23N (designed binder) MTLQELLREEALRRAEAEAFRYNLELLAEKFPEQKEYLLDLAEEIESQIRSLSGVDVEDVRKFLDKEWAWVKELLAEHPAELAEVEAARAARLAELRAEVEAKVAA	0.405 nM
K35L (designed binder) MTLQELLREEALRRAEAEAFRYALELLAEKFPEQLEYLLDLAEEIESQIRSLSGVDVEDVRKFLDKEWAWVKELLAEHPAELAEVEAARAARLAELRAEVEAKVAA	0.405 nM
E10P (designed binder) MTLQELLREPALRRAEAEAFRYALELLAEKFPEQKEYLLDLAEEIESQIRSLSGVDVEDVRKFLDKEWAWVKELLAEHPAELAEVEAARAARLAELRAEVEAKVAA	12.5 nM
E46D (designed binder) MTLQELLREEALRRAEAEAFRYALELLAEKFPEQKEYLLDLAEEIDSQIRSLSGVDVEDVRKFLDKEWAWVKELLAEHPAELAEVEAARAARLAELRAEVEAKVAA	0.539 nM
L6A (designed binder) MTLQEALREEALRRAEAEAFRYALELLAEKFPEQKEYLLDLAEEIESQIRSLSGVDVEDVRKFLDKEWAWVKELLAEHPAELAEVEAARAARLAELRAEVEAKVAA	1.54 nM
E18S (designed binder) MTLQELLREEALRRAEASAFRYALELLAEKFPEQKEYLLDLAEEIESQIRSLSGVDVEDVRKFLDKEWAWVKELLAEHPAELAEVEAARAARLAELRAEVEAKVAA	0.405 nM
E18L (designed binder) MTLQELLREEALRRAEALAFRYALELLAEKFPEQKEYLLDLAEEIESQIRSLSGVDVEDVRKFLDKEWAWVKELLAEHPAELAEVEAARAARLAELRAEVEAKVAA	0.539 nM
R13H (designed binder) MTLQELLREEALHRAEAEAFRYALELLAEKFPEQKEYLLDLAEEIESQIRSLSGVDVEDVRKFLDKEWAWVKELLAEHPAELAEVEAARAARLAELRAEVEAKVAA	0.405 nM
E10V (designed binder) MTLQELLREVALRRAEAEAFRYALELLAEKFPEQKEYLLDLAEEIESQIRSLSGVDVEDVRKFLDKEWAWVKELLAEHPAELAEVEAARAARLAELRAEVEAKVAA	0.956 nM
A11G (designed binder) MTLQELLREEGLRRAEAEAFRYALELLAEKFPEQKEYLLDLAEEIESQIRSLSGVDVEDVRKFLDKEWAWVKELLAEHPAELAEVEAARAARLAELRAEVEAKVAA	0.956 nM
L41I (designed binder) MTLQELLREEALRRAEAEAFRYALELLAEKFPEQKEYLLDIAEEIESQIRSLSGVDVEDVRKFLDKEWAWVKELLAEHPAELAEVEAARAARLAELRAEVEAKVAA	2.73 nM
E43H (designed binder) MTLQELLREEALRRAEAEAFRYALELLAEKFPEQKEYLLDLAHEIESQIRSLSGVDVEDVRKFLDKEWAWVKELLAEHPAELAEVEAARAARLAELRAEVEAKVAA	0.718 nM

Further lines, results first:

apparent Kd (screen)	Binder
6.43 nM	L52P (designed binder) MTLQELLREEALRRAEAEAFRYALELLAEKFPEQKEYLLDLAEEIESQIRSPSGVDVEDVRKFLDKEWAWVKELLAEHPAELAEVEAARAARLAELRAEVEAKVAA
0.593 nM	K72F (designed binder) MTLQELLREEALRRAEAEAFRYALELLAEKFPEQKEYLLDLAEEIESQIRSLSGVDVEDVRKFLDKEWAWVFELLAEHPAELAEVEAARAARLAELRAEVEAKVAA
0.653 nM	V57S (designed binder) MTLQELLREEALRRAEAEAFRYALELLAEKFPEQKEYLLDLAEEIESQIRSLSGVDSEDVRKFLDKEWAWVKELLAEHPAELAEVEAARAARLAELRAEVEAKVAA
1.54 nM	V57N (designed binder) MTLQELLREEALRRAEAEAFRYALELLAEKFPEQKEYLLDLAEEIESQIRSLSGVDNEDVRKFLDKEWAWVKELLAEHPAELAEVEAARAARLAELRAEVEAKVAA
1.27 nM	F63V (designed binder) MTLQELLREEALRRAEAEAFRYALELLAEKFPEQKEYLLDLAEEIESQIRSLSGVDVEDVRKVLDKEWAWVKELLAEHPAELAEVEAARAARLAELRAEVEAKVAA
12.5 nM	V71K (designed binder) MTLQELLREEALRRAEAEAFRYALELLAEKFPEQKEYLLDLAEEIESQIRSLSGVDVEDVRKFLDKEWAWKKELLAEHPAELAEVEAARAARLAELRAEVEAKVAA
2.48 nM	L52C (designed binder) MTLQELLREEALRRAEAEAFRYALELLAEKFPEQKEYLLDLAEEIESQIRSCSGVDVEDVRKFLDKEWAWVKELLAEHPAELAEVEAARAARLAELRAEVEAKVAA
0.653 nM	A102G (designed binder) MTLQELLREEALRRAEAEAFRYALELLAEKFPEQKEYLLDLAEEIESQIRSLSGVDVEDVRKFLDKEWAWVKELLAEHPAELAEVEAARAARLAELRAEVEGKVAA
0.79 nM	A87Y (designed binder) MTLQELLREEALRRAEAEAFRYALELLAEKFPEQKEYLLDLAEEIESQIRSLSGVDVEDVRKFLDKEWAWVKELLAEHPAELAEVEYARAARLAELRAEVEAKVAA
0.653 nM	E99L (designed binder) MTLQELLREEALRRAEAEAFRYALELLAEKFPEQKEYLLDLAEEIESQIRSLSGVDVEDVRKFLDKEWAWVKELLAEHPAELAEVEAARAARLAELRALVEAKVAA
0.956 nM	R97S (designed binder) MTLQELLREEALRRAEAEAFRYALELLAEKFPEQKEYLLDLAEEIESQIRSLSGVDVEDVRKFLDKEWAWVKELLAEHPAELAEVEAARAARLAELSAEVEAKVAA
0.718 nM	E95N (designed binder) MTLQELLREEALRRAEAEAFRYALELLAEKFPEQKEYLLDLAEEIESQIRSLSGVDVEDVRKFLDKEWAWVKELLAEHPAELAEVEAARAARLANLRAEVEAKVAA
